Tests used:
Format in all cases: biochemical, Eucalyptus camaldulensis
purified protein [1] = substrate: O=C(O)C1=C[C@@H](O)[C@@H](O)[C@H](O)C1; assay: purified protein; conditions: shikimate oxidation with NADP+, pH 9, 30 °C
purified protein [2] = substrate: NC(=O)c1ccc[n+]([C@@H]2O[C@H](COP(=O)(O)OP(=O)(O)OC[C@H]3O[C@@H](n4cnc5c(N)ncnc54)[C@H](OP(=O)(O)O)[C@@H]3O)[C@@H](O)[C@H]2O)c1; assay: purified protein; conditions: shikimate oxidation, pH 9, 30 °C, varied: cofactor
purified protein [3] = substrate: NC(=O)C1=CN([C@@H]2O[C@H](COP(=O)(O)OP(=O)(O)OC[C@H]3O[C@@H](n4cnc5c(N)ncnc54)[C@H](OP(=O)(O)O)[C@@H]3O)[C@@H](O)[C@H]2O)C=CC1; assay: purified protein; conditions: shikimate formation from 3-DHS, varied: cofactor
purified protein [4] = substrate: O=C(O)C1=CC(=O)[C@@H](O)[C@H](O)C1; assay: purified protein; conditions: shikimate formation with NADPH
[5] = substrate: O=C1C[C@@](O)(C(=O)O)C[C@@H](O)[C@@H]1O; assay: HPLC of 3-DHS formed, Michaelis-Menten fit; conditions: DQD activity, no cofactor, pH 7, 30 °C
Text: HPLC of 3-DHS formed, Michaelis-Menten fit on EcDQD/SDH3

[6] = substrate: O=C1C[C@@](O)(C(=O)O)C[C@@H](O)[C@@H]1O; assay: HPLC of 3-DHS formed, Michaelis-Menten fit; conditions: DQD activity, no cofactor, pH 7, 30 °C; remark: listed apart in the source
Text: HPLC of 3-DHS formed, Michaelis-Menten fit on EcDQD/SDH1

[7] = substrate: O=C1C[C@@](O)(C(=O)O)C[C@@H](O)[C@@H]1O; assay: HPLC of 3-DHS formed, Michaelis-Menten fit; conditions: DQD activity, no cofactor, pH 7, 30 °C; remark: listed apart in the source
Text: HPLC of 3-DHS formed, Michaelis-Menten fit on EcDQD/SDH2

purified protein [8] = substrate: NC(=O)c1ccc[n+]([C@@H]2O[C@H](COP(=O)(O)OP(=O)(O)OC[C@H]3O[C@@H](n4cnc5c(N)ncnc54)[C@H](O)[C@@H]3O)[C@@H](O)[C@H]2O)c1; assay: purified protein; conditions: quinate oxidation, pH 9, 30 °C, varied: cofactor
purified protein [9] = substrate: O=C(O)[C@]1(O)C[C@@H](O)[C@@H](O)[C@H](O)C1; assay: purified protein; conditions: quinate oxidation with NAD+, pH 9, 30 °C
purified protein [10] = substrate: O=C1C[C@@](O)(C(=O)O)C[C@@H](O)[C@@H]1O; assay: purified protein; conditions: quinate formation with NADH, pH 7.5, 30 °C
purified protein [11] = substrate: NC(=O)C1=CN([C@@H]2O[C@H](COP(=O)(O)OP(=O)(O)OC[C@H]3O[C@@H](n4cnc5c(N)ncnc54)[C@H](O)[C@@H]3O)[C@@H](O)[C@H]2O)C=CC1; assay: purified protein; conditions: quinate formation from 3-DHQ, pH 7.5, 30 °C, varied: cofactor

| Protein | Km (purified protein [1]) [µM] | Vmax (purified protein [1]) [µmol/min/mg] | kcat (purified protein [1]) [s⁻¹] | kcat/Km (purified protein [1]) [M⁻¹ s⁻¹] | Km (purified protein [2]) [µM] | Vmax (purified protein [2]) [µmol/min/mg] | kcat (purified protein [2]) [s⁻¹] | kcat/Km (purified protein [2]) [M⁻¹ s⁻¹] | Km (purified protein [3]; pH 6.5, 30 °C) [µM] | Vmax (purified protein [3]; pH 6.5, 30 °C) [µmol/min/mg] | kcat (purified protein [3]; pH 6.5, 30 °C) [s⁻¹] | kcat/Km (purified protein [3]; pH 6.5, 30 °C) [M⁻¹ s⁻¹] | Km (purified protein [4]; pH 6.5, 30 °C) [µM] | Vmax (purified protein [4]; pH 6.5, 30 °C) [µmol/min/mg] | kcat (purified protein [4]; pH 6.5, 30 °C) [s⁻¹] | kcat/Km (purified protein [4]; pH 6.5, 30 °C) [M⁻¹ s⁻¹] | other results |
| --- | --- | --- | --- | --- | --- | --- | --- | --- | --- | --- | --- | --- | --- | --- | --- | --- | --- |
| EcDQD/SDH3 (Eucalyptus camaldulensis) (protein, genome locus by order of listing EcC054875.120) GSVPFTTSDLQTSTSGFRSSPTLLCTPLMGTTVDQMLIEMRKAKEIGADLVEIRLDCLRNFNPHQDLQILIKQSPLPTLVTYRPVWEGGQYEGDESKRQDALRLAMQLGAHYIDVELEVAHDFNSSILGKKPDNFKIIVSSHNFHNTPSAEAIGNLVARIQATGADIAKIATTALDITDCARIFQITVHSQIPIIGIVMGERGLISRILSPKFGGYLTYGALEAGAISAPGQPTAKDLLDLYNFRLIRPDTKVYGIIGKPVGHSKSPLLFNASYKSVGLNAVYLHFLVDDVEKFFNTYSAVDFASGCSCTIPHKEAALKCMDEIDPIAKKIGAINNIVRRPDGTLTAFNTDYIGAISAIEDGLRGLNGVSSGASPLAGKLFVVLGAGGAGKSLAYGAAQKGARVVVANRTFERAKELADKVGGQAMTLAEVENFHPEEGMVLANTTSVGMKPKIDETPLAKHALKHYCLVFDAIYTPKDTRLLREARETGAVIVYGTEMLIRQGFEQYKNFTGLPAPEELFRTLMEKHA | 3640 ± 360 | 84 | 80.7 ± 2.9 | 22200 | 41.5 ± 2.1 | 73.2 | 70.2 ± 0.6 | 1.69e+06 | 23.1 ± 1.4 | 77.4 | 74.1 ± 1.2 | 3.21e+06 | 878 ± 106 | 60 | 57.6 ± 1.7 | 65600 | Km [5]: 882 ± 42 µM; Vmax [5]: 3.83 µmol/min/mg; kcat [5]: 3.67 ± 0.05 s⁻¹; kcat/Km [5]: 4160 M⁻¹ s⁻¹ |
| EcDQD/SDH1 (Eucalyptus camaldulensis) (protein, genome locus by order of listing EcC055014.20) ASTGNVLLATSSAPHEMESGAVRKNSTLICVPVMADSVEEMVIQLDKAKSSGADLVEIRVDSLKNLSPHEDLKTLIKASALPTLFTYRPKWEGGQYDGDDKPRLETLRLAMELGADYIDVELKVASEFNASIQGRKPEKCKVIVSSHNYENTPSAEDLSNLVARIQAAGADIVKIATTALDITDVERMFHITVHSQVSSVPVIGMVMGERGLISRVLCAKFGGFLTFGTLESGVVSAPGQPTIKDLLDLYNFRSIGPDTKVFGIIGKPVGHSKSPLLYNQAFKSAGFDGVFLHLLVDDVASFLQTYSSTDFAGFSCTIPHKEAAVKCCDEVDPVAKSIGAVNCIIRRQSDAKLFGYNTDYVGAISAIEDGLRGSQNGNSAGASPLNGKLFVVIGAGGAGKALGYGAKEKGARVVIANRTYDRARELAETIGGDALSLADLENFHPEDGMILANTTSIGMQPKVDETPIPKHALKHYSLVFDAVYTPKITRLLKEAEECGATIVSGLEMFIGQAYGQYERYTGLPAPKELFRKIMSKY | 32.6 ± 1.9 | 780 ± 6 | 755 ± 6 | 2.32e+07 | 56.5 ± 2.3 | 822 ± 6 | 792 ± 6 | 1.4e+07 | 49.5 ± 3.6 | 404 | 389 ± 9 | 7.86e+06 | 381 ± 34 | 318 | 307 ± 5 | 805000 | Km [6]: 449 ± 22 µM; Vmax [6]: 63 µmol/min/mg; kcat [6]: 60.4 ± 0.7 s⁻¹; kcat/Km [6]: 135000 M⁻¹ s⁻¹ |
| EcDQD/SDH2 (Eucalyptus camaldulensis) (protein, genome locus by order of listing EcC035206.10) TLSSIPLTAADLQIPAGGRRNSTLLCAPVMGESVDQMLGQIRAAKEQGADLVEVRLDFLKSFSPKQDLEILLKQSALPTLVTYRPKWEGGQYEGDDSQRLDALRLALELGADYVDVELQVAQEFFSSIQGKKPEKAKIIVSSHNYQNTPSSEELGNLVAKIQATGADIVKIATTALDISDCPRIFEVLAHSQVPTIAIAMGERGLISRILAAKFGGYLTFGAIEAGVVSAPGQPSIKDLLDLYNLRQLGPDTKVHGVIGKPIGHSKSPHLYNAAFKSVNFNGIYLPLLVDNVANFINAYSSPDFVGYSYTIPHKEDGLRCCDEVDPIAKAIGAISQMIRRPTDGKMIGYNVDYLGAIAAIEEALRASNGASPTTTSPLAGKLFVVIGAGGAGKALAYGAMEKGARVVVANRTYEKAKELASKVGGQAITLAELENFHPEDGMVLANTTSVGMKPNVDLTPLPKNALSRYCLVFDAIYTPKLTRLLREAQEVGAIPVYGTEMFINQAFVQFERFTGYPAPKQLIRDTLVKNS | 2050 ± 200 | 153 | 146 ± 4 | 71300 | 65.2 ± 2.7 | 141 | 135 ± 1 | 2.07e+06 |  |  |  |  |  |  |  |  | Km [7]: 322 ± 13 µM; Vmax [7]: 32.4 µmol/min/mg; kcat [7]: 30.9 ± 0.3 s⁻¹; kcat/Km [7]: 96200 M⁻¹ s⁻¹; Km (purified protein [3]; pH 8.5, 30 °C): 4.38 ± 0.43 µM; Vmax (purified protein [3]; pH 8.5, 30 °C): 28.9 µmol/min/mg; kcat (purified protein [3]; pH 8.5, 30 °C): 27.6 ± 0.5 s⁻¹; kcat/Km (purified protein [3]; pH 8.5, 30 °C): 6.3e+06 M⁻¹ s⁻¹; Km (purified protein [4]; pH 8.5, 30 °C): 8830 ± 1210 µM; Vmax (purified protein [4]; pH 8.5, 30 °C): 49.3 µmol/min/mg; kcat (purified protein [4]; pH 8.5, 30 °C): 47 ± 3.3 s⁻¹; kcat/Km (purified protein [4]; pH 8.5, 30 °C): 5320 M⁻¹ s⁻¹ |
| EcDQD/SDH4a (EcQDHa) (Eucalyptus camaldulensis) (protein) GSLSLSSVGLTMVCAPVMGESVDQVVEEMHKAKAQGADVVEVRLDCIKQFQAHQDLEIILKSKPLPVIIVYRPKCEGGLYEGDETARLEALRSALKLGADYVDFELKVAAELMSKQNKLHCGGTKVIVSCFLDGVTPSKEELSNLATHMKATGADIIKIVTSASNITELAGLFHLLSYSQMPVVAYAVGERGLISQLLSPKFGSTLVYGSIEGMAVPGLPTLESLRKTYKVEHINSDTTVFGLISKPVGHSKGPILHNPTLRHMNFNGLYVPMFVDNLKEFFEVYSTPDFAGFSVGFPYKEAVIQFCDEVHPLAQTIGAVNTIVRRPSDGKLIGYNTDCEASVTAMEDALQECRCINGEKSLVSPLAGKEFVLVGAGGAGRALAFGAKTRGARIIIFDIDFERAKMLAHAVSGEARPFGDLPYFQPEKGSILANATPIGMHPNKDRIPVSEASLGVFQLVFDAVYTPRKTTLLKEAEAAGAITVSGVEMFLRQAIGQFNLFTGGEAPKEFMREIVLAKF |  |  |  |  |  |  |  |  |  |  |  |  |  |  |  |  | Km (purified protein [8]): 53.7 ± 1.7 µM; Vmax (purified protein [8]): 148 µmol/min/mg; kcat (purified protein [8]): 139 ± 1 s⁻¹; kcat/Km (purified protein [8]): 2.59e+06 M⁻¹ s⁻¹; Km (purified protein [9]): 164 ± 10 µM; Vmax (purified protein [9]): 135 µmol/min/mg; kcat (purified protein [9]): 127 ± 2 s⁻¹; kcat/Km (purified protein [9]): 771000 M⁻¹ s⁻¹; Km (purified protein [10]): 1400 ± 120 µM; Vmax (purified protein [10]): 300 µmol/min/mg; kcat (purified protein [10]): 281 ± 7 s⁻¹; kcat/Km (purified protein [10]): 201000 M⁻¹ s⁻¹; Km (purified protein [11]): 102 ± 9 µM; Vmax (purified protein [11]): 318 µmol/min/mg; kcat (purified protein [11]): 298 ± 8 s⁻¹; kcat/Km (purified protein [11]): 2.92e+06 M⁻¹ s⁻¹ |
